According to patent US20090081211A1 (published 2009):

Biological target: human C3b (UniProt P01024 23-667; P01024 749-1663)
Assay: SPR

human C3b, sequence (P01024 other isoform, or with tags, fused parts or gaps, chain 1 of 2): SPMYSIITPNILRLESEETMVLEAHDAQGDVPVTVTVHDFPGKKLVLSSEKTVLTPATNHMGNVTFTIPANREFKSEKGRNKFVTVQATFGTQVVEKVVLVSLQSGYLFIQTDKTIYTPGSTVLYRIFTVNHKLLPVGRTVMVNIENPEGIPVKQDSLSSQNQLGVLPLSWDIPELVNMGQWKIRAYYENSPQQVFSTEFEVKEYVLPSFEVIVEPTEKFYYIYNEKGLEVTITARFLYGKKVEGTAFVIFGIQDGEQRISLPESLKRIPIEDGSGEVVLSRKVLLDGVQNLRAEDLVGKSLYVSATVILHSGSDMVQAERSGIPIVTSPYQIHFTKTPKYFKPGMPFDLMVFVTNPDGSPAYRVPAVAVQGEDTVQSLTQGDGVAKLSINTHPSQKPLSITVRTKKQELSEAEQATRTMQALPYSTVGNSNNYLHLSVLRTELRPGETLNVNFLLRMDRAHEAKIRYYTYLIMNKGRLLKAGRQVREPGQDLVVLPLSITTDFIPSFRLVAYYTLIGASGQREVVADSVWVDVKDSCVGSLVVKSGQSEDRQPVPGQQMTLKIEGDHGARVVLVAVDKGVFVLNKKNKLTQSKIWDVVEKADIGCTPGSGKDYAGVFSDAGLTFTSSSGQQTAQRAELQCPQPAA
human C3b, sequence (P01024 other isoform, or with tags, fused parts or gaps, chain 2 of 2): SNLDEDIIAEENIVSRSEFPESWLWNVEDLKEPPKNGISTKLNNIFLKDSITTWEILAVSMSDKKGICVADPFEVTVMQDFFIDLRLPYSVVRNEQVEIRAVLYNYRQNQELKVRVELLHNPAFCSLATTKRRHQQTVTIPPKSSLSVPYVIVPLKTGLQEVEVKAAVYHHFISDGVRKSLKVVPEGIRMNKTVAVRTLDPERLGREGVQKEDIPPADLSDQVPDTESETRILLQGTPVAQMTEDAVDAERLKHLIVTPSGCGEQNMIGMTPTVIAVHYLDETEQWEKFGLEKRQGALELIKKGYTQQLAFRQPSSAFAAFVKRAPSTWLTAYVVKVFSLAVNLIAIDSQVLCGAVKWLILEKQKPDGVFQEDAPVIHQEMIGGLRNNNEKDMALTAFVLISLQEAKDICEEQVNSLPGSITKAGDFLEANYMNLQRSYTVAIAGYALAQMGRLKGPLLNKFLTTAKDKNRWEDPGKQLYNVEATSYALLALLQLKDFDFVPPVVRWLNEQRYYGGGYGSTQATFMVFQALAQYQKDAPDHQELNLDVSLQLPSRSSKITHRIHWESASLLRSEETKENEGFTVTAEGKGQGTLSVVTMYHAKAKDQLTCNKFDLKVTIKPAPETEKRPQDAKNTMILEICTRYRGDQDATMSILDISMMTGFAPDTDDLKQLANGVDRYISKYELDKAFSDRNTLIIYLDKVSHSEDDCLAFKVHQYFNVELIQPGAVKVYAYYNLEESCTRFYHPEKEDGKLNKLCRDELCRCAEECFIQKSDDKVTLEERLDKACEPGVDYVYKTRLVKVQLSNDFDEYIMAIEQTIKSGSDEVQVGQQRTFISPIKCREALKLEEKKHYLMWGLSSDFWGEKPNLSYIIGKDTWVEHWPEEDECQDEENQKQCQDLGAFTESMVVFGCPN

B1: antibody YW144.2.43.S77 Fab fragment (Fab, V domains shown)
VH: EVQLVESGGGLVQPGGSLRLSCAASGFSFTSSSVSWVRQAPGKGLEWVGLIYPYNGFNYYADSVKGRFTISADTSKNTAYLQMNSLRAEDTAVYYCARNALYGSGGYYAMDYWGQGTLVTVSS
VL: DIQMTQSPSSLSASVGDRVTITCRASQDVSTAVAWYQQKPGKAPKLLIYSASFLYSGVPSRFSGSGSGTDFTLTISSLQPEDFATYYCQQSYATLPTFEQGTKVEIK
With B1 the Kd was 6.47 nM.
